The record followed here is the nanobody polyreactivity screen of Harvey et al. (2022).

A short description of this data set: yeast display, Sf9 membrane polyspecificity reagent, FACS + sequencing; frameworks hold sequencing errors. The method, boiled down:
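Polyreactivity labels are assigned by the sorting gate from which each nanobody was recovered. The gates were low and high (top ~1%), set on anti-HA fluorescence for expression and streptavidin fluorescence for reagent binding. Before sorting, galactose-induced (36–48 hours) yeast display cells were stained for 1 hour at 4 °C with 10% biotinylated, detergent-solubilized Sf9 membrane reagent.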
“QVQLVESGGGLVQAGGSLRLSCAASGNTFRYYAMGWYRQAPGKERDLVAAISESGGRTYYADSVKGRFTISRDNAKKTVYLQMNSLKPEDTAFYYCAASRWARTWWYGYNYWGQGTQVTVSS”: the “polyreactivity (PSR sort gate)” value is reported as “high polyreactivity”. Next, “QVQLVESGGGLVQAGGSLRLSCAASGNTFSVYAMGWYRQAPGKERELVAGITTSGGSTYYADSVKGRFTISRDNAKNTVYLQMNSLKPEDTAVYYCATDISTSYYYQYSSFYQYDSWGQGTQVTVSS”: “low polyreactivity”. Under “QVQLVESGGGLVQAGGSLRLSCAASGNTFTRNAMGWYRQAPGKERELVAAITGRGGTYYADSVKGRFTISRDNAKNTVYLQMNSLKPEDTAVYYCNAVYRSSYQKGSMDYWGQGTQVTVSS” stands “high polyreactivity”. Next, “QVQLVESGGGLVQAGGSLRLSCAASGNTFTWYTIGWYRQAPGKERELVAVITSDGSKYYADSVKGRFTISRDNAKNTFYLQMNSLKPEVTAVYYCTVGGGTNYGYGYWYGFYYWGQGTQVTVYS”: “low polyreactivity”. For “QVQLVESGGGLVQAGGSLRLSCAASGNTFTWYTIGWYRQAPGKERELVAVSTSDGSTYYADSVKGRFTISRDNAKHTVYLQMNSLKPEDTAVYYCTAGGGTNYGSGYWYGYYYWGQGTQVTVSS”, the “polyreactivity (PSR sort gate)” value is given as “low polyreactivity”.

For “QVQLVESGGGLVQAGGSLRLSCAASGNTFVGNAMGWYRQAPGKERELVAVITWSGGSTYYADSVKGRFTISRDNAKNTVYLQMNSLKPEDTAVYYCAARKFGTSVTHRGYWGQGTQVTVSS”, the “polyreactivity (PSR sort gate)” value is recorded as “low polyreactivity”. Next, “QVQLVESGGGLVQAGGSLRLSCAASGNTFVYKDMGWYRQAPGKERELVADIRYSGSTYYADSVKGRFTISRDNAKNTVYLQMNSLKPEDTAVYYCAKAYYVLSWMGYWGQGTQVTVSS”: “low polyreactivity”; “QVQLVESGGGLVQAGGSLRLSCAASGNTFVYNDMGWYRQAPGKERELVADIRYSGSTYYADSVKGRFTISRDNAMNSVYLQMNSLKPEDTAVYYCAKAYYVLSWMGYWGQGTQVTVSS”: “low polyreactivity”. Regarding “QVQLVESGGGLVQAGGSLRLSCAASGNTFWPYAMGWYRQAPGKERELVAAISWRGSRTYYADSVKGRFTISRDNAKNTVYLQMNSLKPEDTAVYYCAADYKYVGSEYGYWGQGTQVNVSS”, the “polyreactivity (PSR sort gate)” value is “low polyreactivity”. As for “QVQLVESGGGLVQAGGSLRLSCAASGNTFWRYTMGWYRQAPGKERELVAAISSSGGSTYYADSVKGRFTISRDNAKNTVYLQMNSLKPEDTAVYYCAADSGSSRSRRGYEYWGQGTQVTVSS”, the “polyreactivity (PSR sort gate)” value was “high polyreactivity”.

For the sequence “QVQLVESGGGLVQAGGSLRLSCAASGNTFWSYAMGWYRQAPGKERELVAAITQRGGSTYYADSVKGRFTISRDNAKNNVDLQMNSLKPEDTAVYYCAADTYYKGDYWGQGTQVTVSS”, the “polyreactivity (PSR sort gate)” value is “high polyreactivity”. Next, “QVQLVESGGGLVQAGGSLRLSCAASGNTFYANTMGWYRQAPGKERELVAAITVRGASTNYADSVKGSFTISRDNAKNTVYLQMNSLKPEDTAVYYCNAVGLRSPWHQDYLIRYDYRGQGTQVTVSS”: “low polyreactivity”. Under “QVQLVESGGGLVQAGGSLRLSCAASGNTFYFNAMGWYRQAPGKERELVAAITSGGNTNYADSVKGRFTISRDHAKNTFNLQMNSLKPEDSAVYYCNVPRFSPIRNYDYWGQGTQVTVSS” stands “high polyreactivity”; under “QVQLVESGGGLVQAGGSLRLSCAASGNTFYFYAMGWYRQAPGKERELVAAIRWSGSRTYADSVKGRFTISRDNAKNTVYLQMNSLKPEDTAVYYCNADSIWGYDYWGQGTQVTVSS”, “high polyreactivity”; under “QVQLVESGGGLVQAGGSLRLSCAASGNTFYFYAMGWYRQAPGKERELVASITRRGGSTYYADSVKGRFTISRDNAKNTVYLQMNSLKPEDTAVYYCARYPARYGGYYDYDYWGQGTQVTVSS”, “high polyreactivity”. Next, “QVQLVESGGGLVQAGGSLRLSCAASGNTFYGYTMGWYRQAPGKERELVAAISSRGGSTYYADSVKGRFTISRDNAKNTVYLQMISLKPEDTAVYYCAAVRPVKKFPYCYWGQGTQVTVSS”: “high polyreactivity”; “QVQLVESGGGLVQAGGSLRLSCAASGNTFYLYAMGWYRQAPGKERELVASITGGTRTNYADSVKGRFTISRDNAKNTVYLQMNSLKPEDTAVYYCAKTYPRTVGKYLSRGGYYYWGQGTQVTVSS”: “high polyreactivity”.

As to “QVQLVESGGGLVQAGGSLRLSCAASGNTFYQYAMGWYRQAPGKERELVAAIDWSGGSTYADSVKGRFTISRDNAKNTVYLQINSLKPEDTAVYYCNASVKPSNVWSRGYDYWGQGTQVTVSS”, the “polyreactivity (PSR sort gate)” value is “low polyreactivity”.

On to “QVQLVESGGGLVQAGGSLRLSCAASGNTFYRNAMGWYRQAPGKERELVAAISTTGVSTYYADSVKGRFTISRDNAKNTVYVQMTSLKPEDTAVYYCAAEIIGYHTIYDYWGQGTQVTVSS”, for which the “polyreactivity (PSR sort gate)” value is listed as “low polyreactivity”. Under “QVQLVESGGGLVQAGGSLRLSCAASGNTFYSYAMGWYRPAPGKERELVAAITWGGRTKYADSVKGRFTISRDNAKNTVYLQMNSLKPEDTAVYYCAARLYHGKTKYDYWGQGTQVTVSS” stands “high polyreactivity”; under “QVQLVESGGGLVQAGGSLRLSCAASGNTFYVNVMGWYRQAPGKEREFVAAISTRGVSTSYADSVKGRFTISRDNAKNTVYLQMNSLKPEDTAVYYCAASFRRPQPKGTTYGYWGQGTQVTVSS”, “high polyreactivity”; under “QVQLVESGGGLVQAGGSLRLSCAASGNTFYWNAMGWYRRAPGKERELVAAISTTGVSTYYADSVKGRFTISRDKAKNTVYLQMNSLKPEDTAVYFCAAEIIGYHTIYDYWGQGTQVTVSS”, “low polyreactivity”. Next, “QVQLVESGGGLVQAGGSLRLSCAASGNTINVNTMGWYRQAPGKERELVAAISKRGGSTYYADSVKGRFTISRDNAKNTVYLQMNSLKPEDTAVYYCAKQVSLPRYHYGSAPYGYWGQGTQVTVSS”: “high polyreactivity”; “QVQLVESGGGLVQAGGSLRLSCAASGNTLAKYAMGWYRQAPGKERELVAAISWSGGRTFYADSVKGRFTISRDNAKNTVYLQMNSLKPEDSAVYYCNKVKGQSFSSYGYWGQGTQVTVSS”: “high polyreactivity”. Turning to “QVQLVESGGGLVQAGGSLRLSCAASGNTLAYYDMGWYRQAPGKESELVAAITSGGTTNYADSVKGRFTISRDNAKNTVYLQMNSLKPEDTAVYYSAALGIGSSRRFSGYVYWGQGTQVTVSS”, the “polyreactivity (PSR sort gate)” value is “low polyreactivity”.

For the sequence “QVQLVESGGGLVQAGGSLRLSCAASGNTLDAYTMGWYRQAPGKERELVAAISRGGTRTYYADSVKGRFTISRDNAKNTVYLQMNSLKPEDTAVYYCNKVRDYSYDSWGQCTQVTVSS”, the “polyreactivity (PSR sort gate)” value is “high polyreactivity”. Under “QVQLVESGGGLVQAGGSLRLSCAASGNTLHVYAMGWYRQAPGKERELVARITGGGRTYYADSVKGRFTISRDNAKNTVYLQMNSLKTEDTAVYYCATDYYGHKVLYDYWGQGTQVTVSS” stands “low polyreactivity”.

For the sequence “QVQLVESGGGLVQAGGSLRLSCAASGNTLRVYALGWYRQAPGKERELVAAISYSSVNTYYADSVKGRFTISRDNAKNTVYLQMNSLKPEDTAVYYCAADYYYYRRTQYDLRGYPYYYWGQGTQVTVSS”, the “polyreactivity (PSR sort gate)” value is given as “low polyreactivity”. Under “QVQLVESGGGLVQAGGSLRLSCAASGNTLTYNVMGWYRQAPGKDWDLVAAISGRGGRTYYADSVKGRFTISRDNAKNTVYLQMNSLKPEDTAVYYCAATSRNGESGGFYYWGQGTQVTVSS” stands “high polyreactivity”. Regarding “QVQLVESGGGLVQAGGSLRLSCAASGNTLWRNAMGWYRQAPGKERELVATISSVGTYYADSVKGRFTISRDNAKNSVYFQMNSLKPEDTAVYYCAARIWAFYSRRYFWGQGTQVTVSS”, the “polyreactivity (PSR sort gate)” value is given as “high polyreactivity”. For “QVQLVESGGGLVQAGGSLRLSCAASGNTSVPYAMGWYRQAPGKERELVARITWSTGRTYYADSVKGRFTISRDNAKNTVYLQMNSLKPVDTAVYYCATEAWLPGSGGDYWGQVTQVTVSS”, the “polyreactivity (PSR sort gate)” value is reported as “low polyreactivity”. Next, “QVQLVESGGGLVQAGGSLRLSCAASGNTYIRNVMGCYRQAPGKERELVAGIRTGGSTFYADSVKGRFTISRDNAKNPVYLQMNSLKPEDTAVYYCAGYQLRLVYGYGYWGQGTQVTVSS”: “low polyreactivity”.

For “QVQLVESGGGLVQAGGSLRLSCAASGPIFAYNAMGWYRQAPGKERELVAAISYSGGSTYYADSVKGRFTISRDNAKNTVYLQMNSLKPEDTAVYYCNAVYRYRTYRYDYWGQGTQVTVSS”, the “polyreactivity (PSR sort gate)” value is “high polyreactivity”. Under “QVQLVESGGGLVQAGGSLRLSCAASGPIFAYNAMGWYRQATGKERELVAAISYSGGSTYYPDSVKGRFTISRDNEKNSVYLQMNSLKPEDTAVYYCNAVYRYRTYRYDYWGQGTQVTVSS” stands “high polyreactivity”; under “QVQLVESGGGLVQAGGSLRLSCAASGPISAIYDMGWDRQAPGKERELVASISGGTSTYYADSVKGRFTISRDNAKNTVYLQMNSLKPEDTAVYYCNAEASSYHGVEDEYDYWGQGTQVTVSS”, “low polyreactivity”. For “QVQLVESGGGLVQAGGSLRLSCAASGPTFGVYAKGWDRQAPGKEREFVAAISSTGGSTYYADSVKGRFTISRDNAKNTVYLQMNSLKPEDTAVYYCAARLHTYGYSYGYWGQGTQVTVSS”, the “polyreactivity (PSR sort gate)” value is reported as “high polyreactivity”. Under “QVQLVESGGGLVQAGGSLRLSCAASGPTFYKYAMGWYRQAPGKERELVATITRRGGSTYYADSVKGRFTISRDNAKNTVYLQMNSLKPEDTAVYYCAKEIFLKGPDGHDYWGQGTQVTVSS” stands “low polyreactivity”; under “QVQLVESGGGLVQAGGSLRLSCAASGPTFYKYAMGWYRQAPGKERELVATITRRGGSTYYADSVKGRFTISRDNAKNTVYLQMNSLKPEDTAVYYCAKEIFQKGPDGHDYWGQGTQVTVSS”, “low polyreactivity”; under “QVQLVESGGGLVQAGGSLRLSCAASGPTLHAYTMGWYRQAPGKERELVAAITRGGGNTYYADSVKGRFTISRDNAKNTVYLQMNSLKPEDTAVYYCNADVSGYLWYEYDYWGQGTQVTVSS”, “low polyreactivity”. Under “QVQLVESGGGLVQAGGSLRLSCAASGRICEVYAMGWYRQAPGKERELVAAINSGGSTRYADSVKGRFTISRDNAKNTVYLQMNSLKPEDTAVYYCNARPGYYRYLRGYNYWGQGTQVTVSS” stands “low polyreactivity”.
